Experimental data as given in patent publication EP4703384A1 (Chia Tai Tianqing Pharmaceutical Group Co., Ltd., dated 2026).

Tests used:
human GPRC5D protein [1] = molecular target: T1, human GPRC5D protein (human, UniProt Q9NZD1 1-345); assay: FACS on NCI-H929 cells
T1 construct: also called hGPRC5D; CHO-K1-hGPRC5D^hi

human GPRC5D protein [2] = molecular target: T1, human GPRC5D protein; assay: FACS on RPMI-8226 cells
human GPRC5D protein [3] = molecular target: T1, human GPRC5D protein; assay: cell-based or functional assay
T cell surface CD3 [4] = molecular target: T2, T cell surface CD3 (human, UniProt P07766 23-207; P04234 22-171; P09693 23-182); assay: cell-based or functional assay
T2 sequence (P07766 23-207 limits assumed, chain 1 of 3): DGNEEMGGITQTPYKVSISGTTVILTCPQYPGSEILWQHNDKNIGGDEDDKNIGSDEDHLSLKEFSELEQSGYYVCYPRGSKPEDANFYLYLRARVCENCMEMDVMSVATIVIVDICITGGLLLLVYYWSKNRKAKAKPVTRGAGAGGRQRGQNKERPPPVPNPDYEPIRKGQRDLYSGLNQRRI
T2 sequence (P04234 22-171 limits assumed, chain 2 of 3): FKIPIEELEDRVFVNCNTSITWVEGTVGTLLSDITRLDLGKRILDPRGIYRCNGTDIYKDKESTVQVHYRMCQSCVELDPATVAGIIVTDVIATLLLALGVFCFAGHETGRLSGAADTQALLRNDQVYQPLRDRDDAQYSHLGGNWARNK
T2 sequence (P09693 23-182 limits assumed, chain 3 of 3): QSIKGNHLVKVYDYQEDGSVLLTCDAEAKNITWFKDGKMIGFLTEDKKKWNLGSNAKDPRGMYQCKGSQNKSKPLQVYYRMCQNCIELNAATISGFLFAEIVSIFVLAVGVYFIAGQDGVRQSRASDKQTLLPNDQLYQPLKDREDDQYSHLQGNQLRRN

T cell surface CD3 [5] = molecular target: T2, T cell surface CD3; assay: FACS on human CD3+ T cells
human GPRC5D protein [6] = molecular target: T1, human GPRC5D protein; assay: FACS on MM.1S cells

T1 sequence (Q9NZD1 whole entry): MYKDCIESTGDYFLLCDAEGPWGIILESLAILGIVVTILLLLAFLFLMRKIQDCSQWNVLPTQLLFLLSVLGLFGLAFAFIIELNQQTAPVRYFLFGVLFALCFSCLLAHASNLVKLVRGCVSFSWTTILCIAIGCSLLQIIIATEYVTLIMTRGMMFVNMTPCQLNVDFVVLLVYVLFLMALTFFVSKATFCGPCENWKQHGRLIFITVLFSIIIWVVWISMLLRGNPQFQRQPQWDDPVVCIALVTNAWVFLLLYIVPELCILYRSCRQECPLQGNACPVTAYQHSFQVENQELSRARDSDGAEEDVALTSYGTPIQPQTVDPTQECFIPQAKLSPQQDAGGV

Binder | EC50 (human GPRC5D protein [1]) [nM] | EC50 (human GPRC5D protein [2]) [nM] | Lysis EC50(nM), MM.1S target cells with human PBMC (human GPRC5D protein [3]) [nM] | Lysis EC50(nM), NCI-H929 target cells with human PBMC (human GPRC5D protein [3]) [nM] | Lysis EC50(nM), RPMI-8226 target cells with human PBMC (human GPRC5D protein [3]) [nM] | CD25/CD4 EC50(nM), activation of T cells in the presence of MM.1S (T cell surface CD3 [4]) [nM] | CD25/CD8 EC50(nM), activation of T cells in the presence of MM.1S (T cell surface CD3 [4]) [nM] | CD69/CD4 EC50(nM), activation of T cells in the presence of MM.1S (T cell surface CD3 [4]) [nM] | CD69/CD8 EC50(nM), activation of T cells in the presence of MM.1S (T cell surface CD3 [4]) [nM] | EC50 (T cell surface CD3 [5]) [nM] | Top(MFI) (T cell surface CD3 [5]) | EC50 (human GPRC5D protein [6]) [nM]
GC35 (bispecific antibody, human IgG1, kappa, L234A L235A, also called anti-GPRC5D/anti-CD3 bispecific antibody GC35) heavy: EVQLVQSGAEVVKPGASVKMSCKASGYTFTNYVMHWVKQAPGQGLEWMGYFNPYNDGTNYNEKFKGRVTLTSDTSANTAYMELSSLRSEDTAVYYCARGGVRRYFDVWGQGTTVTVSSASTKGPSVFPLAPSSKSTSGGTAALGCLVKDYFPEPVTVSWNSGALTSGVHTFPAVLQSSGLYSLSSVVTVPSSSLGTQTYICNVNHKPSNTKVDKKVEPKSCDKTHTCPPCPAPEAAGGPSVFLFPPKPKDTLMISRTPEVTCVVVDVSHEDPEVKFNWYVDGVEVHNAKTKPREEQYNSTYRVVSVLTVLHQDWLNGKEYKCKVSNKALAAPIEKTISKAKGQPREPQVCTLPPSREEMTKNQVSLSCAVKGFYPSDIAVEWESNGQPENNYKTTPPVLDSDGSFFLVSKLTVDKSRWQQGNVFSCSVMHEALHNHYTQKSLSLSPGK light: DIQMTQSPSSLSASVGDRVTITCRASQDIGSNLNWLQLGPGGAIKRLIYATFSLDSGVPSRFSGSRSGSDYTLTISSLQPEDFVDYYCQQYANFPPTFGGGTKVEIKRTVAAPSVFIFPPSDEQLKSGTASVVCLLNNFYPREAKVQWKVDNALQSGNSQESVTEQDSKDSTYSLSSTLTLSKADYEKHKVYACEVTHQGLSSPVTKSFNRGEC ELVVTQEPSLTTSPGGTVTLTCRSSTGAVTTSNYANWVQQKPGQAPRGLIGGTNKRAPGTPARFSGSLLGGKAALTITGVQPEDEAEYYCALWYSNLWVFGGGTKLTVLGGGGSGGGGSGGGGSEVQLVESGGGLVQPGGSLRLSCAASGFTFNTYAMNWVRQAPGKGLEWVARIRSKYNNYATYYADSVKDRFTISRDDSKNTAYLQMNNLKTEDTAMYYCVRHGNFGNSYVSWFAYWGQGTLVTVSSGEPKSSDKTHTCPPCPAPEAAGGPSVFLFPPKPKDTLMISRTPEVTCVVVDVSHEDPEVKFNWYVDGVEVHNAKTKPREEQYNSTYRVVSVLTVLHQDWLNGKEYKCKVSNKALAAPIEKTISKAKGQPREPQVYTLPPCREEMTKNQVSLWCLVKGFYPSDIAVEWESNGQPENNYKTTPPVLDSDGSFFLYSKLTVDKSRWQQGNVFSCSVMHEALHNRYTQKSLSLSPGK | 3.04 | 15.9 | 0.00534 | 0.00592 | 0.0163 | 0.00999 | 0.00879 | 0.00738 | 0.00458 | 48.9 | 54700 | 3.75
GC39 (bispecific antibody, human IgG1, kappa, L234A L235A, also called anti-GPRC5D/anti-CD3 bispecific antibody GC39) heavy: EVQLVESGGGLVQPGGSRRVSCAASGFTFSSFGMHWVRQAPGKGLEWVAYISRGSSTIYYADTVKGRFTISRDNAKNSLYLQMNSLRAEDTAVYYCARSGYGSSSYYFDYWGQGTTVTVSSASTKGPSVFPLAPSSKSTSGGTAALGCLVKDYFPEPVTVSWNSGALTSGVHTFPAVLQSSGLYSLSSVVTVPSSSLGTQTYICNVNHKPSNTKVDKKVEPKSCDKTHTCPPCPAPEAAGGPSVFLFPPKPKDTLMISRTPEVTCVVVDVSHEDPEVKFNWYVDGVEVHNAKTKPREEQYNSTYRVVSVLTVLHQDWLNGKEYKCKVSNKALAAPIEKTISKAKGQPREPQVCTLPPSREEMTKNQVSLSCAVKGFYPSDIAVEWESNGQPENNYKTTPPVLDSDGSFFLVSKLTVDKSRWQQGNVFSCSVMHEALHNHYTQKSLSLSPGK light: EIVLTQSPATLSASPGERATMSCRASSSIRSSYLHWYQQKPGQSPRLWIYSTSNLASGVPARFSGSGSGTDYTLTISSLEPEDAAVYYCQQFSGYPLTFGGGTKVEIKRTVAAPSVFIFPPSDEQLKSGTASVVCLLNNFYPREAKVQWKVDNALQSGNSQESVTEQDSKDSTYSLSSTLTLSKADYEKHKVYACEVTHQGLSSPVTKSFNRGEC ELVVTQEPSLTTSPGGTVTLTCRSSTGAVTTSNYANWVQQKPGQAPRGLIGGTNKRAPGTPARFSGSLLGGKAALTITGVQPEDEAEYYCALWYSNLWVFGGGTKLTVLGGGGSGGGGSGGGGSEVQLVESGGGLVQPGGSLRLSCAASGFTFNTYAMNWVRQAPGKGLEWVARIRSKYNNYATYYADSVKDRFTISRDDSKNTAYLQMNNLKTEDTAMYYCVRHGNFGNSYVSWFAYWGQGTLVTVSSGEPKSSDKTHTCPPCPAPEAAGGPSVFLFPPKPKDTLMISRTPEVTCVVVDVSHEDPEVKFNWYVDGVEVHNAKTKPREEQYNSTYRVVSVLTVLHQDWLNGKEYKCKVSNKALAAPIEKTISKAKGQPREPQVYTLPPCREEMTKNQVSLWCLVKGFYPSDIAVEWESNGQPENNYKTTPPVLDSDGSFFLYSKLTVDKSRWQQGNVFSCSVMHEALHNRYTQKSLSLSPGK | 16.7 |  | 0.0335 | 0.0146 | 0.136 | 0.0596 | 0.0448 | 0.0438 | 0.0226 | 37.9 | 38000 | 3.71
